Values quoted from earlier work in US8501705B2, “Methods and materials for treating autoimmune and/or complement mediated diseases and conditions” (The Board of Regents of the University of Texas System, priority 2003, dated 2013).

Biological target: C3 (Mus musculus, UniProt P01027)
Details: inhibition of C3

Sequence of C3 (P01027 25-1663): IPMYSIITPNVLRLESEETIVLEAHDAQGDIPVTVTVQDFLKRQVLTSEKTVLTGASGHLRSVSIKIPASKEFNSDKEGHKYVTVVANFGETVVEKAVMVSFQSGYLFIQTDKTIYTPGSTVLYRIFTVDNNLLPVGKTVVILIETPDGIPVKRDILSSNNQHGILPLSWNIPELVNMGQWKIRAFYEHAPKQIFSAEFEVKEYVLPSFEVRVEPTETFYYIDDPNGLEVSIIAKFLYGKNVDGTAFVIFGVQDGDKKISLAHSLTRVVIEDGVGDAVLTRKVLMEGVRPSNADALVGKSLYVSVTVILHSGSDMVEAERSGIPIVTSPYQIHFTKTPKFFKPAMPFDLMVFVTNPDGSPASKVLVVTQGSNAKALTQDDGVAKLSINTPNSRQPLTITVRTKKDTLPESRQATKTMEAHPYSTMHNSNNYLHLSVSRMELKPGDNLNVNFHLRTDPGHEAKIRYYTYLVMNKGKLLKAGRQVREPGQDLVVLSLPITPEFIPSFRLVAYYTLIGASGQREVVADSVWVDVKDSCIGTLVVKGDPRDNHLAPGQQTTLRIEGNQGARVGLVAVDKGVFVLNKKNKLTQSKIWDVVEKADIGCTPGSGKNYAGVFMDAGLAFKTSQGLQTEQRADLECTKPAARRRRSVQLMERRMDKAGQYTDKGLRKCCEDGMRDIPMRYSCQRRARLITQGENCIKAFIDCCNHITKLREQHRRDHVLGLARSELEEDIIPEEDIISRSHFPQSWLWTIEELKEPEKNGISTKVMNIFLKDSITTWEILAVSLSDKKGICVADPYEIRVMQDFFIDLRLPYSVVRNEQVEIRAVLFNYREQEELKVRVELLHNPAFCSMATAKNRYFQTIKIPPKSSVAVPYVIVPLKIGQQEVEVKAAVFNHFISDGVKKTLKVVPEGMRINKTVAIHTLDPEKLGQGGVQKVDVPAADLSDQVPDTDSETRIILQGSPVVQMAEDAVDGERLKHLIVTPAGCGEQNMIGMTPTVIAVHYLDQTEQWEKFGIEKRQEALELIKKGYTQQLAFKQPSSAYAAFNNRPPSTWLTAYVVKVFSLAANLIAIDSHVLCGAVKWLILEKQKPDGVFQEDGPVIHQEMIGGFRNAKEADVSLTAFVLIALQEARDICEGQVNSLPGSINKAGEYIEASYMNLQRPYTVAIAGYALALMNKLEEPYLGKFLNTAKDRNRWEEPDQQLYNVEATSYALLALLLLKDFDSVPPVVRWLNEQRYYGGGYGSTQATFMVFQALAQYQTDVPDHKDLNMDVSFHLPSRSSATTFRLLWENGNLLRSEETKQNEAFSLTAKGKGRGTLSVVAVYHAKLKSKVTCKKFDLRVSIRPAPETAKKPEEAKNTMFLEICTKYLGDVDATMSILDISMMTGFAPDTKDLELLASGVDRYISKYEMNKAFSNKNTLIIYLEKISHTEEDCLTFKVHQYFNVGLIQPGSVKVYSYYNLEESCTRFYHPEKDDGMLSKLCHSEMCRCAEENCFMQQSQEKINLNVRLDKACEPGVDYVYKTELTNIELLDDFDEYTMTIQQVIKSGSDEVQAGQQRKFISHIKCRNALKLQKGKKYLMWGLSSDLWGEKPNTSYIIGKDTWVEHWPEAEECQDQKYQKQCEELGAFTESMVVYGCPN

In the case of cobra venom factor, the EAMG disease induction is given as “inhibits disease induction”.
